From paper PMC3443816

Biological target: T1, Cbf5 wild type;Nop10;Gar1 (in complex) (Pyrococcus furiosus;Pyrococcus …, UniProt Q7LWY0;Q8U1R4;Q8U029 1-340;1-60;=MG+2-104, ||internal_change)
T1 sequence 1: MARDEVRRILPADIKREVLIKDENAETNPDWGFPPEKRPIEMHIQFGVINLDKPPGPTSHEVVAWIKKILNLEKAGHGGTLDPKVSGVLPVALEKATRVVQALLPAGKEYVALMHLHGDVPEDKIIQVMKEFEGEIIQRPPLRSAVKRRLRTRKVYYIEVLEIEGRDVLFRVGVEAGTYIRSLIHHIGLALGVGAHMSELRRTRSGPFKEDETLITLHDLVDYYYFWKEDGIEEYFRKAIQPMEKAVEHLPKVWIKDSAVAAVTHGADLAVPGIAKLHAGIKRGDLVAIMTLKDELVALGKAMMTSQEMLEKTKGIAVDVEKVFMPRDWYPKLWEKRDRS
T1 sequence 2: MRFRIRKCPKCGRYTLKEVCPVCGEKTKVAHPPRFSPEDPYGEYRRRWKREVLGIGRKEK
T1 sequence 3: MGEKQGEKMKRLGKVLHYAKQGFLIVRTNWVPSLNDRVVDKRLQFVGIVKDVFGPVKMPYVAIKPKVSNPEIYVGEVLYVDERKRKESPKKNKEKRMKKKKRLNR
Experiment: filter binding

B1: H/ACA guide RNA Pf4 (structured_RNA)
RNA: AAUGCCCCUCCCCUCUCACACCCCCGUGAGAAGUGAGCGGGGGGCGGUCGGGGAGGGGACAUCA
  Kd: 21 ± 8 nM
